Measurements taken from patent publication US20110223163A1 (US Dept. of Health and Human Services, published 2011).

B1: anti-γDPGA chimpanzee monoclonal antibody 4C, full-length IgG with human γ1 constant regions (antibody, V domains shown)
VH: LEESGGGLVKPGDSLRLSCAASGFTFSVYAMHWVRQAPEKGLEWVSTIGAGGNTWHSDSVKGRYTIARDNSQNTLSLQMNSLRAEDTAVYYCVRRGYCSSTRCDSNDAFDIWGQGTMVTVS
VL: APMTQSPSSLSASVGDRVSITCRASQDINDFLAWFQQKPGKAPKRLIFRTSSLQGGVSSRFSGSGSGTEFTLTISNLRPEDFATYYCLQHSSYPPTFGQGTKLEISR
notes: also called 4C IgG; IgG1 of anti-γDPGA 4C monoclonal antibody
B2: anti-γDPGA chimpanzee monoclonal antibody 11D, full-length IgG with human γ1 constant regions (antibody, V domains shown)
VH: LESGGGLVKPGGSLTLSCAASGFTFSTYAMHWVRQAPEKGLEWVSTIGRSGDTLYSDSVKGRFSISRDNSKNTLYLQMNSLRAEDTAVYYCARKGYCSSTNCQSQYYFDYWGQGTLVTVS
VL: ELTQSPSSLSASVGGRVTITCRASQDVNTWLAWYQQKPGKAPKPLIYAASSLQGGVPSRFSGSGSGTDFTLTISSLQPEDFATYYCQQYKHYPLTFGGGTKVEIKR
notes: also called 11D IgG; CH11D-hG1

Columns and labels:
[1] = molecular target: synthetic 10-mer peptide of γ-D-glutamic acids
[2] = molecular target: BSA (UniProt P02769 25-607); test: ELISA, full-length IgG
Sequence of BSA (P02769 25-607 limits assumed): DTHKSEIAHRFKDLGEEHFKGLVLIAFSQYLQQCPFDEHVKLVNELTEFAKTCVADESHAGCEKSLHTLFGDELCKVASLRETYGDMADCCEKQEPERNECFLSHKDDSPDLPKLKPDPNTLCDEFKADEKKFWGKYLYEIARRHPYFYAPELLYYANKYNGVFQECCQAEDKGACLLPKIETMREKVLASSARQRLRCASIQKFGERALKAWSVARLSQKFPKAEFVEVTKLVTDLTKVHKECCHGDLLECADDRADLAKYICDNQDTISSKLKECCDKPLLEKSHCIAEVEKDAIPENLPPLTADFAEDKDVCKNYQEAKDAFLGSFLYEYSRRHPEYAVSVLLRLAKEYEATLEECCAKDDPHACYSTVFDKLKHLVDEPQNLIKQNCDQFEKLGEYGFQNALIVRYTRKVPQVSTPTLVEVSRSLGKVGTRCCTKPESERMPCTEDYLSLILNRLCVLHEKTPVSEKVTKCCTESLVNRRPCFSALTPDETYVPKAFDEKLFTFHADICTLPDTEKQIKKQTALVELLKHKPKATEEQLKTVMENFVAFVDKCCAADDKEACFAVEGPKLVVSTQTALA

| Binder | Kd [1] [pM] | koff [1] [s⁻¹] | kon [1] [M⁻¹ s⁻¹] | binding result [2] |
| --- | --- | --- | --- | --- |
| B1 | 550 | 0.0023 | 4.2e+06 | no binding |
| B2 | 82 | 9.04e-05 | 1.1e+06 | no binding |
